B1: Twister Ribozyme (parent)
chain: AACACUGCCAAUGCCGGUCCCAAGCCCGGAUAAAAGUGGAGGGGGCGG

The variants in the data set derive from B1. Nature of the data set: self-cleavage, relative activity (ratio to wild type); higher = more cleavage; co-transcriptional.
As to G29U G41C, the self-cleavage turned out to be 0.25.
For A30C G43U, the self-cleavage turned out to be 0.121.
Turning to A30C G43C, the self-cleavage was 0.103.
In the case of C27G A30C, the self-cleavage was found to be 0.105.
The result for C27G A30G reads 0.0912; that for A30G A33C, 1.06.
Consider A30G A33U, for which the self-cleavage was found to be 0.919.
Take G29C A33C: the self-cleavage was found to be 0.545.
Take G28A G29A: the self-cleavage amounted to 0.898.
Turning to G28C G47C, the self-cleavage was found to be 0.254.
As to A30G G38C, the self-cleavage was found to be 0.868.
With A30G G38A, the self-cleavage was determined as 0.853.
Take G28U G39U: the self-cleavage amounted to 0.177.
Take G28C A33G: the self-cleavage worked out at 0.83.
On to G28C A33C, for which the self-cleavage stood at 0.745.
With C27G G44C, the self-cleavage is 0.133.
As to C27G G44U, the self-cleavage stood at 0.0884.
With G29U A40U, the self-cleavage came out at 0.145.
The result for G29U A40G reads 0.167; that for G29U A40C, 0.208; that for A30G G45C, 0.571.
Consider C27G G42C, for which the self-cleavage stood at 0.082.
Take C27G G42A: the self-cleavage turned out to be 0.0529.
As to G28U A32U, the self-cleavage came out at 0.873.
With G28U A32G, the self-cleavage turned out to be 0.777.
The result for G28U A32C reads 0.716.
For C27G C46A, the self-cleavage worked out at 0.0878.
As to C27G C46U, the self-cleavage worked out at 0.105.
For G29U A33G the value was 0.747; for G29C A40G, 0.157; for G28U C46G, 0.765.
For G28U C46A the value was 0.778; for G29U G38U, 0.666; for G28U A33U, 0.833.
For the variant G28U A33G, the self-cleavage is 0.979.
The result for G28U A33C reads 0.838; that for C27U, 0.876; that for C27G, 0.0872.
Consider C27A G39A, for which the self-cleavage was 0.128.
In the case of C27A G39U, the self-cleavage came out at 0.0773.
For C27A A32U, the self-cleavage stood at 0.446.
For the variant C27A A32G, the self-cleavage is 0.483.
With G28C A34G, the self-cleavage was 0.491.
For the variant G28C A34C, the self-cleavage worked out at 0.154.
As for C27U U37A, the self-cleavage turned out to be 0.444.
For G28A A32U the value was 0.817; for G28A A32C, 0.941; for G28A A32G, 0.835.
Take G29A G47U: the self-cleavage is 0.765.
On to G29A G47C, for which the self-cleavage came to 0.347.
With G29A G47A, the self-cleavage worked out at 0.689.
For A30C G48A the value was 0.576.
Regarding A30C A33U, the self-cleavage amounted to 0.766.
As to A30C A33C, the self-cleavage came out at 0.676.
Take C27U A30C: the self-cleavage amounted to 0.701.
As for G29C U37A, the self-cleavage was 0.259.
Take G29C U37C: the self-cleavage worked out at 0.182.
With G29C U37G, the self-cleavage was found to be 0.4.
The result for G29A A35G reads 0.657; that for G29C A30C, 0.971.
For G28U G43A the value was 0.221; for G28U G43C, 0.151.
Consider G28U G43U, for which the self-cleavage turned out to be 0.285.
For G28A A34C the value was 0.175; for G28A A34G, 0.606; for G28C A30G, 0.77.
Turning to G28C A30C, the self-cleavage was determined as 0.848.
Consider G28A U31C, for which the self-cleavage amounted to 0.835.
For the variant G29A G39U, the self-cleavage turned out to be 0.232.
Consider G29C A32U, for which the self-cleavage came to 0.443.
As to G29U U37A, the self-cleavage worked out at 0.512.
On to G29U U37C, for which the self-cleavage was found to be 0.444.
The result for G28C G29C reads 0.865; that for G28C G29U, 0.98; that for C27A A34C, 0.0922.
For C27A A34G the value was 0.139.
For the variant G29U A34C, the self-cleavage is 0.185.
As for G29U A34U, the self-cleavage stood at 0.666.
For C27G G47U the value was 0.0917; for C27G G47A, 0.0917; for C27G G47C, 0.0485.
Take G28U U37G: the self-cleavage is 0.168.
With G28U U37A, the self-cleavage is 0.348.
Take G28U U37C: the self-cleavage was determined as 0.431.
The result for G29A A40C reads 0.176.
On to G29A A40G, for which the self-cleavage was 0.146.
On to G29A A40U, for which the self-cleavage is 0.204.
Regarding C27A A40U, the self-cleavage amounted to 0.142.
As for C27A A40G, the self-cleavage worked out at 0.145.
The result for C27U A33U reads 0.709; that for C27U A33G, 0.702.
As for G29U C46U, the self-cleavage is 0.901.
The result for G29U C46G reads 0.88.
For the variant C27A G47A, the self-cleavage turned out to be 0.238.
For the variant C27A G47U, the self-cleavage came to 0.186.
The result for C27A G48C reads 0.563; that for A30C C46U, 0.798; that for A30C C46G, 0.647.
The result for A30C C46A reads 0.612; that for G28U G41C, 0.263; that for G28U G41A, 0.459.
As for C27G U37C, the self-cleavage worked out at 0.102.
C27G U37G: the self-cleavage amounted to 0.0978.
As to G29A G44A, the self-cleavage stood at 0.738.
In the case of G29A G44C, the self-cleavage worked out at 0.803.
G29A G44U: the self-cleavage was 0.922.
A30G A35G: the self-cleavage stood at 0.869.
G29C U31G: the self-cleavage was determined as 0.851.
On to G29C U31A, for which the self-cleavage worked out at 1.
In the case of C27G A33G, the self-cleavage came to 0.139.
A30G C46G: the self-cleavage is 0.964.
For A30G C46U, the self-cleavage was 0.779.
Regarding G28U G29A, the self-cleavage was 0.947.
The result for G28U G29C reads 0.928; that for A30C G36C, 0.0822.
A30C G36U: the self-cleavage was found to be 0.0939.
As for A30C A34U, the self-cleavage is 0.314.
Turning to A30C A34C, the self-cleavage was found to be 0.0893.
Consider A30G G43U, for which the self-cleavage was 0.498.
Turning to A30C G42C, the self-cleavage stood at 0.111.
G28C C46U: the self-cleavage stood at 0.841.
Take G28C C46A: the self-cleavage came to 0.684.
Consider G28C C46G, for which the self-cleavage came to 0.565.
G28A G47U: the self-cleavage is 0.576.
Take G28A G47A: the self-cleavage was 0.545.
As for G28A G47C, the self-cleavage is 0.283.
As to G29U G42A, the self-cleavage is 0.224.
With G29A G36C, the self-cleavage came to 0.246.
On to G29A G36A, for which the self-cleavage came out at 0.458.
As for C27U G36C, the self-cleavage is 0.21.
For the variant C27U G36A, the self-cleavage is 0.583.
The result for C27U G36U reads 0.158; that for A30C G45U, 0.573.
As to G28C G44A, the self-cleavage was determined as 0.782.
Take G28U G47A: the self-cleavage came out at 0.374.
The result for G28U G47U reads 0.567; that for G29U A32C, 0.836.
The result for G29C G47A reads 0.397; that for G29C G47C, 0.222.
As to G29C G47U, the self-cleavage worked out at 0.3.
For G29C A34C the value was 0.148.
Take G29C A34G: the self-cleavage was 0.214.
C27A G41A: the self-cleavage was determined as 0.119.
Consider G28C G39C, for which the self-cleavage came to 0.159.
As for G29A G38U, the self-cleavage came to 0.634.
With C27A G44C, the self-cleavage worked out at 0.298.
With C27A G44U, the self-cleavage amounted to 0.41.
Turning to C27A G44A, the self-cleavage came to 0.648.
As to G29U A35C, the self-cleavage turned out to be 0.892.
Turning to G29U A35G, the self-cleavage stood at 0.786.
As for C27U G44A, the self-cleavage worked out at 0.84.
On to C27U G44C, for which the self-cleavage came to 0.777.
As for C27U G43U, the self-cleavage came to 0.219.
Regarding C27U G43A, the self-cleavage came out at 0.211.
Regarding G28A G42U, the self-cleavage was 0.261.
Turning to A30C G39C, the self-cleavage stood at 0.107.
The result for A30C G39U reads 0.106.
Regarding G29U G39C, the self-cleavage turned out to be 0.116.
On to G29U G39U, for which the self-cleavage is 0.223.
The result for G29U G39A reads 0.417.
On to C27U C46A, for which the self-cleavage was found to be 0.825.
As to A30C U37G, the self-cleavage was 0.306.
C27U A34G: the self-cleavage worked out at 0.483.
For C27A G38U, the self-cleavage was 0.33.
For C27A G38C the value was 0.573.
In the case of C27A G38A, the self-cleavage is 0.241.
As for A30C G38C, the self-cleavage was 0.732.

Source of the values: the RNAGym collection of RNA variant scans (doi:10.7554/elife.80360).
